The values below come from patent publication US20070207955A1, “Novel polypeptide and process for producing the same, and collagenase inhibitor” (priority 2006, published 2007).

Experiment [1] deals with collagenase (MMP-1, human rheumatoid synovial fibroblast) (human) (UniProt P03956).
Experiment [2] deals with T1, collagenase (MMP-1, human rheumatoid synovial fibroblast) (Homo sapiens, UniProt P03956).
T1 construct: collagenase (MMP-1, human rheumatoid synovial fibroblast); endogenous in cells; host or cells: human rheumatoid synovial fibroblast
T1 sequence (P03956 100-469): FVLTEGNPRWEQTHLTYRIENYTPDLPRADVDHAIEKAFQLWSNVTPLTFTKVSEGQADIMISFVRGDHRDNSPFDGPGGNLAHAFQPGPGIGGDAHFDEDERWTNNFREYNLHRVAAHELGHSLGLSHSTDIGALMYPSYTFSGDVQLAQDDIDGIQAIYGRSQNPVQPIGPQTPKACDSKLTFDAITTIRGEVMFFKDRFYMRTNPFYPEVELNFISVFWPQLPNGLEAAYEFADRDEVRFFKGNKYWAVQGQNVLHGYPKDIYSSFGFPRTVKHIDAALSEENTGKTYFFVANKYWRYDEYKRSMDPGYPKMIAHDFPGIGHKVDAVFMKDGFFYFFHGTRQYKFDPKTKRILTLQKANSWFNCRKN
The experiment in a line: Test Example 2: collagenase inhibition, peak area of Dnp-Pro-Leu-Gly from decomposition of Dnp-Pro-Leu-Gly-Ile-Ala-Gly-Arg-NH2. To be noted: 0.025 mg polypeptide, 200 ng collagenase, 37° C. for one hour. Type of experiment: biochemical. The protocol: Each of the polypeptides (0.025 mg) obtained in the Examples 1 to 6 and Comparative Examples 1 and 2 was dissolved in 0.05 mL of a 50 mM Tris/HCl buffer (pH=7.5) containing 50 mM NaCl and 10 mM CaCl2. Further, to each of the solutions was added 200 ng of collagenase (MMP-1, human rheumatoid synovial fibroblast) which was dissolved in 0.05 mL of a 50 mM Tris/HCl buffer (pH=7.5) containing 50 mM NaCl and 10 mM CaCl2, and was added 0.01 mL of 1 mM DMSO solution of Dnp-Pro-Leu-Gly-Ile-Ala-Gly-Arg-NH2 (manufactured by Peptide Institute, Inc., Dnp represents 2,4-dinitrophenyl group). The resulting mixture was allowed to stand at 37° C. for one hour. Then, 0.2 mL of acetonitrile was added to the mixture, and the resultant was centrifuged at 10,000 rpm for 10 minutes.
Incidentally, as a control, a peak area of the peptide Dnp-Pro-Leu-Gly without addition of any polypeptide was measured. The peak area of the control was considered as 100, and the peak area detected by addition of each of the polypeptides obtained in Examples and Comparative Examples was calculated as a relative value to the control.

Experiment [3] concerns the target polypeptide of Example 2 (polycondensate of H-(Pro-Hyp-Gly)4-Pro-Gln-Gly-Ile-Ala-Gly-(Pro-Hyp-Gly)4-OH) (Artificial Sequence).
The target of experiment [4] is polypeptide of Example 3 (co-polycondensate of H-(Pro-Hyp-Gly)10-OH and H-(Pro-Hyp-Gly)4-Pro-Gln-Gly-Ile-Ala-Gly-(Pro-Hyp-Gly)4-OH, equimolar) (Artificial Sequence).
Experiment [5] deals with polypeptide of Comparative Example 1 (polycondensate of H-(Pro-Hyp-Gly)10-OH) (Artificial Sequence).

The substance “polypeptide of Example 5, H-(Pro-Hyp-Gly)4-Pro-Leu-Gly-Ile-Ala-Gly-(Pro-Hyp-Gly)4-OH” showed a relative value of the peak area of Dnp-Pro-Leu-Gly (control without polypeptide = 100) (relative to control = 100) in experiment [1] of 4.
In turn, “polypeptide of Comparative Example 1 (polycondensate of H-(Pro-Hyp-Gly)10-OH)” displayed a relative value of the peak area of Dnp-Pro-Leu-Gly (control without polypeptide = 100) (relative to control = 100) in experiment [1] of 97.
Turning to “peptide of Comparative Example 2, H-(Pro-Hyp-Gly)10-OH”, the relative value of the peak area of Dnp-Pro-Leu-Gly (control without polypeptide = 100) (relative to control = 100) in experiment [1] turned out to be 96.
With “polypeptide of Example 2 (polycondensate of H-(Pro-Hyp-Gly)4-Pro-Gln-Gly-Ile-Ala-Gly-(Pro-Hyp-Gly)4-OH)”, the relative value of the peak area of Dnp-Pro-Leu-Gly (control without polypeptide = 100) (relative to control = 100) in experiment [1] was 3.
As to “H-(Pro-Hyp-Gly)10-OH [Comparative Example 2]”, the “inhibition of the collagenase activity” value in experiment [2] was “the inhibition of the collagenase activity was not recognized”. Besides, the “relative value of the detected peak area of Dnp-Pro-Leu-Gly (control without polypeptide = 100)” value in experiment [2] (pH 7.5) turned out to be 96.
Regarding “collagenase (MMP-1, human rheumatoid synovial fibroblast) (from UniProt P03956) (enzyme)”, the change in the molecular weight peak by gel-permeation chromatography after 24 hours at 37 C with collagenase (molecular weight) was determined as 540000 in experiment [3], 400000 in experiment [4] and 540000 in experiment [5].
Regarding “polypeptide of Example 4 (co-polycondensate of H-(Pro-Hyp-Gly)10-OH and H-(Pro-Hyp-Gly)4-Pro-Gln-Gly-Ile-Ala-Gly-(Pro-Hyp-Gly)4-OH, 0.00081 mmol to 0.00009 mmol)”, the relative value of the peak area of Dnp-Pro-Leu-Gly (control without polypeptide = 100) (relative to control = 100) in experiment [1] worked out at 22.
In experiment [1], “polypeptide of Example 1, H-(Pro-Hyp-Gly)4-Pro-Gln-Gly-Ile-Ala-Gly-(Pro-Hyp-Gly)4-OH” showed a relative value of the peak area of Dnp-Pro-Leu-Gly (control without polypeptide = 100) (relative to control = 100) of 5.
Substance “polypeptide of Example 6 (polycondensate of H-(Pro-Hyp-Gly)4-Pro-Leu-Gly-Ile-Ala-Gly-(Pro-Hyp-Gly)4-OH)” registered a relative value of the peak area of Dnp-Pro-Leu-Gly (control without polypeptide = 100) (relative to control = 100) in experiment [1] of 2.
Consider “polypeptide of Example 3 (co-polycondensate of H-(Pro-Hyp-Gly)10-OH and H-(Pro-Hyp-Gly)4-Pro-Gln-Gly-Ile-Ala-Gly-(Pro-Hyp-Gly)4-OH, equimolar)”, for which the relative value of the peak area of Dnp-Pro-Leu-Gly (control without polypeptide = 100) (relative to control = 100) in experiment [1] was determined as 12.
